Results published in patent publication US20250277031A1 (BEIJING HANMI PHARMACEUTICAL, published 2025).

T1: recombinant human B7-H2 (ACROBiosystems) (human, UniProt O75144 19-258, limits assumed)
T1 construct: counted here as a B7 family member
T1 sequence (looked up): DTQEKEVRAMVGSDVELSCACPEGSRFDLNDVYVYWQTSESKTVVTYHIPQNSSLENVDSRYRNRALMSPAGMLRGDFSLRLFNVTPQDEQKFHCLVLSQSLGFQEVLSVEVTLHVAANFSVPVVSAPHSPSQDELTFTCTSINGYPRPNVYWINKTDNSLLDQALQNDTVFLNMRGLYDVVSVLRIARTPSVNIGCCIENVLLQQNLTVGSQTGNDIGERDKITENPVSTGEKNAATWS


Columns and labels:
[1] = biological target: recombinant human SIRPγ (ACROBiosystems) (human, UniProt Q9P1W8 29-360, limits assumed); test: ELISA, coated recombinant protein
Sequence of recombinant human SIRPγ (ACROBiosystems) (Q9P1W8 29-360 limits assumed): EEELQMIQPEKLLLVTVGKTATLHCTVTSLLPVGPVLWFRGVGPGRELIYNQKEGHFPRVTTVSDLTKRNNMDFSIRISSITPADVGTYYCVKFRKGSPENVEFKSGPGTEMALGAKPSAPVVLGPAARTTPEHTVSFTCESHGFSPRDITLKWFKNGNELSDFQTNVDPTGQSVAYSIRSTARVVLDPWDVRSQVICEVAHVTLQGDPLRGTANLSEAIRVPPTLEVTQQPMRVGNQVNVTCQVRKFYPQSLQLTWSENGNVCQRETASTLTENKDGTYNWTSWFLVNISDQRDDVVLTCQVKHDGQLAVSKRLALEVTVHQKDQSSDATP
Experimental: (§1) Binding specificity of the chimeric anti-human CD47 mAbs was determined by ELISA. A 96-well high-adsorption ELISA plate was coated with 1 μg/mL of the recombinant human PD1, CD28, CTLA4, ICOS, BTLA, CD47, PD-L2, CD80, CD86, B7-H2, CD47, SIRPα and SIRPγ (all from ACROBiosystems), at 100 μL per well using carbonate buffer solution, pH=9.6 at 4° C. overnight. The plate was washed 5 times with PBST, and then blocked using PBST with 1% BSA, 300 μL/well, and incubated at 25° C. for 1 hour, and then washed 5 times with PBST. The chimeric anti-human CD47 mAb samples serially diluted in PBST with 1% BSA and the control CC-90002 and the isotype control were added, 100 μL/well, incubated at 25° C. for 1 hour, and then washed 5 times with PBST. The horseradish peroxidase-labeled anti-human IgG antibody (Chemicon, catalog number AP309P) diluted 1:10000 in PBST with 1% BSA was then added, 100 μL per well, and incubated at 25° C. for 1 hour. The plate was washed 5 times with PBST. The colorimetric substrate TMB was added, 100 μL/well, and developed at room temperature for 10 minutes. 1M H₂SO₄ was added, 100 μL/well, to stop the development. The absorbance at 450 nm was read on a microplate reader.

[2] = biological target: T1, recombinant human B7-H2 (ACROBiosystems); test: ELISA, coated recombinant protein
Experimental: as §1

[3] = biological target: T2, recombinant human CD47 (human, UniProt Q08722 19-139); test: ELISA, plate coated with 1 µg/mL recombinant human CD47, OD450
T2 construct: also called antigen CD47
T2 sequence (Q08722 19-139 limits assumed): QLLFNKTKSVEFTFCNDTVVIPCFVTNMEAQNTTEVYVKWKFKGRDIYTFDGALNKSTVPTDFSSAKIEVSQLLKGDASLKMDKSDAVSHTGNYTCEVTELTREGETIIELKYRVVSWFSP
Experimental: A 96-well high-adsorption ELISA plate was coated with 1 μg/mL of the recombinant human CD47 (Sino Biological Inc.) at 100 μL per well using carbonate buffer solution, pH=9.6 at 4° C. overnight. The plate was washed 5 times with PBST, and then blocked using PBST with 1% BSA, 300 μL/well, and incubated at 25° C. for 1 hour, and then washed 5 times with PBST. The anti-human CD47 antibody samples and the control CC-90002 (a patent sequence from WO2016109415) were added, 100 μL/well, incubated at 25° C. for 1 hour, and then washed 5 times with PBST. The horseradish peroxidase-labeled anti-mouse IgG antibody (Abcam, catalog number Ab7068) diluted 1:10000 in PBST with 1% BSA was then added, 100 μL per well, and incubated at 25° C. for 1 hour. The plate was washed 5 times with PBST. The colorimetric substrate TMB was added, 100 μL/well, and developed at room temperature for 10 minutes. 1M H₂SO₄ was added, 100 μL/well, to stop the development. The absorbance at 450 nm was read on a microplate reader.

[4] = biological target: T3, recombinant human CD47-Fc protein (ACROBiosystems, catalog number CD7-H52A5) (human, UniProt Q08722 19-139); test: blocking ELISA: plate coated with human CD47-Fc, 2 nM biotin-labelled SIRPα as the blocked ligand, falling OD450 curve; the sheet labels the half-maximal value EC50
T3 construct: bought; not shown: Fc part of a bought fusion protein, not described
T3 sequence (Q08722 19-139 limits assumed): as above
Experimental: (§2) A 96-well high-adsorption ELISA plate was coated with 1 μg/mL of the recombinant human CD47-Fc (ACROBiosystems) at 100 μL per well using carbonate buffer solution, pH=9.6 at 4° C. overnight. The plate was washed 5 times with PBST, and then blocked using PBST with 1% BSA, 300 μL/well, and incubated at 25° C. for 1 hour, and then washed 5 times with PBST. The anti-human CD47 antibody samples were added, 50 μL/well, the biotin-labelled SIRPα (ACROBiosystems) was added at a concentration of 4 nM (a final concentration of 2 nM), 50 μL/well, incubated at 25° C. for 90 minutes, and then washed 5 times with PBST. The Streptavidin-HRP (BD Pharmingen, catalog number 554066) diluted 1:1000 in PBST with 1% BSA was then added, 100 μL per well, and incubated at 25° C. for 1 hour. The plate was washed 5 times with PBST. The colorimetric substrate TMB was added, 100 μL/well, and developed at room temperature for 10 minutes. 1M H₂SO₄ was added, 100 μL/well, to stop the development. The absorbance at 450 nm was read on a microplate reader.

[5] = biological target: T2, recombinant human CD47; test: ELISA, plate coated with recombinant human CD47, OD450
[6] = biological target: T2, recombinant human CD47; test: SPR, Biacore X100, antibody captured on Protein A chip, CD47 as analyte
Source text: Biacore X100 instrument (purchased from GE) was used to detect the kinetic constant of the chimeric anti-human CD47 monoclonal antibodies binding to its antigen human CD47. This instrument utilizes optical surface plasmon resonance technology to detect the association and dissociation between the molecules coated on the biochip and the molecules to be tested. The main reagent used is Protein A chip (GE Healthcare, 29-1275-57). The experimental procedure is briefly described as follows: the chimeric anti-human CD47 antibodies were diluted in running buffer (1×HBS-EP+10 mM HEPES, 150 mM NaCl, 3 mM EDTA, 0.05% surfactant P20, pH7.4). During the capture-binding phase, the antibodies at a concentration of 2 μg/mL were injected for 60 seconds at a speed of 10 μL/min. During the binding phase, the antigen CD47 was diluted into multiple concentrations with running buffer, injected for 120 seconds at a speed of 30 μL/min respectively. During the dissociation phase, running buffer was injected for 600 seconds at a speed of 10 μL/min. The regeneration condition is 10 mM glycinate solution, pH1.5. Association kinetic constants and dissociation kinetic constants were analyzed and calculated by Biacore X100 evaluation software. The association kinetic constants, dissociation kinetic constants and dissociation equilibrium constants of the chimeric anti-human CD47 antibodies were shown in Table 7.
As mentioned above, Biacore X100 instrument was used to detect the binding kinetic constant of the humanized anti-human CD47 monoclonal antibodies to its antigen human CD47. The association kinetic constants, dissociation kinetic constants and dissociation equilibrium constants of the humanized anti-human CD47 antibodies were shown in Table 10.

[7] = biological target: T3, recombinant human CD47-Fc protein …; test: blocking ELISA: plate coated with human CD47-Fc, biotin-labelled SIRPα as the blocked ligand, falling OD450 curve; the sheet labels the half-maximal value EC50
[8] = biological target: T3, recombinant human CD47-Fc protein …; test: competition ELISA, coated CD47-Fc, competitor biotin-labelled SIRPα 2 nM
Experimental: as §2, with “ELISA was used to determine whether the anti-human CD47 selection antibodies secreted by the positive clones can block the binding of CD47/SIRPα. A 96-well” for “A 96-well”, “anti-human CD47 selection antibody samples” for “anti-human CD47 antibody samples”, “microplate reader. The anti-human CD47 selection antibodies capable of inhibiting the binding of the human CD47-Fc/biotin-labelled SIRPα have a neutralizing activity. […]” for “microplate reader.”

[9] = biological target: T2, recombinant human CD47; test: ELISA, coated recombinant human CD47
Experimental: ELISA was used to screen the anti-human CD47 antibodies in the hybridoma culture supernatants. A 96-well high-adsorption ELISA plate (Costar, catalog number 42592) was coated with 1 μg/mL of the recombinant human CD47 (Sino Biological Inc.) at 100 μL per well using carbonate buffer solution, pH=9.6 at 4° C. overnight. The plate was washed 5 times with PBST, and then blocked using PBST with 1% BSA, 300 μL/well, and incubated at 25° C. for 1 hour, and then washed 5 times with PBST. The culture supernatant samples and positive serum control were added, 100 μL/well, incubated at 25° C. for 1 hour, and then washed 5 times with PBST. The horseradish peroxidase-labeled anti-mouse IgG antibody (Abcam, catalog number Ab7068) diluted 1:10000 in PBST with 1% BSA was then added, 100 μL per well, and incubated at 25° C. for 1 hour. The plate was washed 5 times with PBST. The colorimetric substrate TMB was added, 100 μL/well, and developed at room temperature for 10 minutes. 1M H₂SO₄ was added, 100 μL/well, to stop the development. The absorbance at 450 nm was read on a microplate reader. Positive clones capable of secreting the anti-human CD47 selection antibodies were selected according to the magnitude of OD₄₅₀ₙₘ.

Binder	EC50 [5] [nM]	Kd [6] [nM]	koff [6] [s⁻¹]	kon [6] [M⁻¹ s⁻¹]	IC50 [7] [nM]	IC50 [8] [nM]	EC50 [9] [nM]	other results
chimeric anti-human CD47 monoclonal antibody mAb-18-10 N297A (antibody, human IgG1, kappa, N297A, no further substitution applied) heavy: not shown light: DIVMTQSQKFMSTSVGDRVSITCKASQNVRTSIAWYQQKPGQSPKTLIYLASNRHTGVPDRFTGSGSGTDFTLTISNVQSEDLADYFCLQHWNYPFTFGSGTKLEIKRTVAAPSVFIFPPSDEQLKSGTASVVCLLNNFYPREAKVQWKVDNALQSGNSQESVTEQDSKDSTYSLSSTLTLSKADYEKHKVYACEVTHQGLSSPVTKSFNRGEC								binding result [1]: no binding; binding result [2]: no binding; EC50 [3]: 0.031 nM; IC50 [4]: 1.69 nM
humanized anti-human CD47 monoclonal antibody BH3008b (antibody, human IgG4 S228P, kappa, V domains shown, variable regions of Z11; the summary calls the humanized antibody an IgG4; also called Z11) VH: QVQLVQSGAEVKKPGSSVKVSCKASGFNIEDIYMHWVRQAPGQGLEWMGRIDPANDNTKYGPKLQGRVTITADTSTNTAYMELSSLRSEDTAVYYCVRRIPTDIMDYWGQGTTVTVSS VL: DIQMTQSPSSLSASVGDRVTITCKASQNVRTSIAWYQQKPGKAPKTLIYLASNRHTGVPSRFSGSGSGTEFTLTISNLQPEDFATYYCLQHWNYPFTFGQGTKLEIKR	0.035	1.17	0.00117	998000	0.781			
humanized anti-human CD47 monoclonal antibody BH3011b (antibody, human IgG4 S228P, kappa, V domains shown, variable regions of Z12; the summary calls the humanized antibody an IgG4; also called Z12; BH301Tb) VH: QVQLVQSGAEVKKPGSSVKVSCKASGFNIEDIYMHWVRQAPGQGLEWMGRIDPANDNTKYGPKLQGRVTITADTSTNTAYMELSSLRSEDTAVYYCVRRIPTDIMDYWGQGTTVTVSS VL: DIQMTQSPSSLSASVGDRVTITCKASQNVRTSIAWYQQKPGKAPKTLIYLASNRHTGVPSRFSGSGSGTEFTLTISNLQPEDFATYFCLQHWNYPFTFGQGTKLEIKR	0.029	0.833	0.000852	1.02e+06	0.741			
anti-human CD47 murine monoclonal antibody secreted by clone CD47-18-5 (antibody, V domains shown, murine hybridoma antibody) VH: EVQLQQSGAELVKPGASVKLSCTASGFNIEDIYMHWVKQRPEQGLEWIGRIDPANDNTKYGPKLQGRATITADTSSNTAYLQLSGLTSEDTGVYYCVRRIPTDIMDYWGPGTSVTVSS VL: DIVMTQSQKFMSTSVGDRVSITCKASQNVRTSIAWYQQKSGQSPKTLIYLASNRHTGVPDRFTGSGSGTDFTLTISNVQSEDLADYFCLQHWNYPFTFGSGTKLEIK						1.48	0.252	
anti-human CD47 murine monoclonal antibody secreted by clone CD47-18-10 (antibody, V domains shown, murine hybridoma antibody) VH: EVQLQQSGAELVKPGASVKLSCTASGFNIEDIYMHWVKQRPEQGLEWIGRIDPANDNTKYGPKFQGRATMTADTSSNTAYLQLSGLTSEDTGVYYCVRRITTDVMDYWGQGTSVTVSS VL: DIVMTQSQKFMSTSVGDRVSITCKASQNVRTSIAWYQQKPGQSPKTLIYLASNRHTGVPDRFTGSGSGTDFTLTISNVQSEDLADYFCLQHWNYPFTFGSGTKLEIK						2.1	0.273	
